B1: SbEES19769: GH3 protein, accession EES19769 (protein)
chain: MPEAPVTTMREAATAAAAAAVPETHRELLEYIERVTAGAAQVQRRVLAEILAQNAPAEYLRRLGVAGDAPGAVDAFRRAAPLVTYEDILPDVLRIANGDTSPILSGKPIREFLTSSGTSGGERKLMPAIADEMDRRSLLYSLLMPVMSQAVPGLDKGKCMYLYFVKAESRTPGGHPARPVLTSFYRSRHFLERPHDPYTVYTSPDEAILCVDAYQSMYAQLLCGLVHRADVLRVGAVFASGFLRAIRFLEKHWQRLCRDIRTGTLDAEAVTDRAVRAAVEQRVLLRADPALADAVEAECARTSWQGIIRRVWPNTKYIDVIVTGAMAQYIPQLEFYGGGLPLTCTMYASSESYFGINLNPMCKPSEVAYTLIPTMCYFEFLPLPQPGDDDAGEPDQRDLVDLVDVKLGHEYELVVTTYSGLYRYRVGDVLRVAGFKNQAPMFNFLRRKNVVLSIDADKTDEAELHAAVSGAVQHLAPFGASLVEYTSYADAGTIPGHYVLFWELRLRAAAAAGATPTPVPASVFEDCCLAVEEALNSVYRQGRAADRSIGPLEIRVVSDGTFDKLMDYALARGASINQYKAPRCVRPGPVVELLDGRVQASYFSPKCPKWSPGVGKQWSSDAAAAAKKAAAGGSNGGGGGGGAVVVA
modifications: Sorghum bicolor
B2: ZmACI46148: GH3 protein, accession ACI46148 (protein)
chain: MAVMAEVVSTTGAALRSPASQPLPAAVKNADAEKLQFIEEMTSNVDAVQERVLGEILARNAGTEYLAKYGLAAATTDRATFRAKVPMATYEDLQPYIRRIADGDRSPILSGHPVSEFLTSSGTSAGERKLMPTIEDELNRRQLLYSLQMPVMNLYVPGMDKGKALHFLFVKSETKTPGGLAARPVLTSYYKSNHFKNRPFDAYNNYTSPTAAILCADAFQSMYAQMLCGLCQRQDVLRVGAVFASGLLRAIRFLQLNWEQLAEDIEAGSLTPRVTDPSVREAVAGILRADPELAALVRSECSKGDWAGIITRIWPSTKYLDVIVTGAMAQYIPTLKYYSGGLPMACTMYASSECYFGLNLRPMCDPSEVSYTLMPNMCYFEFLPMDSAAASGGDASKLVDLARVEVGREYELVITTYAGLNRYRVGDVLQVTGFHNTAPQFRFVRRKNVLLSIESDKTDEAELQRAVERASALLRPHGAAVVEYTSQAYTKSIPGHYVIYWELLAKGPAGGAAVGEGTLERCCLEMEEALNTVYRQSRVADGSIGPLEIRVVRPGTFEELMDYAISRGASINQYKVPRCVTFPPIIELLDSRVVSSHFSPALPHWTPGQRSDSD
modifications: Zea mays
B3: ZmACI46149: GH3 protein, accession ACI46149 (protein)
chain: MAVMAEVVSTTGAALRSPASQQPAAAGAAKGTDAEKLQFIEDMTSNVDAVQERVLGEILARNADTEYLAGRCGLAGATDRATFRAKVPMATYEDLQPYIRRIADGDRSPILSGHPVSEFLTSSGTSGGERKLMPTIEDELNRRQLLYSLQMPVMNLYVPGMDKGKALHFLFVKSETKTPGGLAARPVLTSYYKSNHFRNRPFDAYNNYTSPTAAILCADAFQSMYAQMVCGLCQRQDVLRVGAVFASGLLRAIRFLQLNWEQLADDIEAGSLTPRVTDPSVREAVAGILRPDPAVAELVRSECSGGDWAGIVTRIWPNTKYLDVIVTGAMAQYIPTLKHYSGGLPMACTMYASSECYFGLNLRPMCDPSEVSYTLMPNMCYFEFLPMGGAVDASQLVDLARVERGREYELVITTYAGLNRYRVGDVLQVTGFHNSAPQFRFVRRKNVLLSIESDKTDEAELQRAVERASALLRPHGAAVVEYTSQAYTKSIPGHYVVYWELLQAKGGAAVDGETLEGCCLEMEEALNAVYRQSRVADGSIGPLEIRVVRPGTFEELMDYAISRGASINQYKVPRCVTFPPIIELLDSRVVSSHLSPALPHWTAGQRSDSD
modifications: Zea mays
B4: ZmACL52529: GH3 protein, accession ACL52529 (protein)
chain: MSTSHARVKSDSNNGRTRTCDDGGSSGTSGGERKLMPAIADEMDRRSLLYSLLMPVMSQAVPGLDRGRCMYLYFVKAESRTPGGHPARPVLTSFYRSRHFLERPHDPYTVHTSPDEAVLCVDAYQSMYAQLLCGLVHRADVLRVGAVFASGFLRAIRFLEKHWQRLCRDLRRGALGAEVTDRSVRAAVARVLRADPALADAVEAECARPSWQGIIRRVWPGTKYIDVIVTGAMAQYIPTLEFYGGGLPLTCTMYASSESYFGINLNPMCKPSEVAYTLIPTMCYFEFLPLPQPGPGGTDDADPDHRDLVDLVDVKLGHEYELVVTTYSGLYRYRVGDVLRVAGFKNQAPMFKFLRRKNVVLSIDSDKTDEAELHAAVSGAVQHLAPFGASLVEYTSYADAGTIPGHYVLFWELRLRAGDVPVPVPASVFEDCCLAVEEALNSVYRQGRAADRSIGPLEIRVVSDGTFDRLMDYALARGASINQYKVPRCVHPGPVVELLDGRVQASYVSPKCPKWSPGGGKQWSSDAAAKKPAAAAGSNNGGGAVVA
modifications: Zea mays
B5: ZmACL54563: GH3 protein, accession ACL54563 (protein)
chain: MPEAPVVTMRDTAAAAPPATHRDLLEYIERVTAGAAQVQRRVLSEILAQNAPAEYLRRLGVSGAAPGAVEAFRRAAPLVTYEDILPDVLRIANGDTSPILSGKPIREFLTSSGTSGGERKLMPAIADEMDRRSLLYSLLMPVMSQAVPGLDRGRCMYLYFVKAGSRTPGGHPARPVLTSFYRSRHFLERPHDPYTVHTSPDEAVLCVDAYQSMYAQLLCGLVHRADVLRVGAVFASGFLRAIRFLEKHWQRLCRDLRRGALGAEVTDRSVRAAVARVLRADPALADAVEAECARPSWQGIIRRVWPGTKYIDVIVTGAMAQYIPTLEFYGGGLPLTCTMYASSESYFGINLNPMCKPSEVAYTLIPTMCYFEFLPLPQPGPGGTDDADPDHRDLVDLVDVKLGHEYELVVTTYSGLYRYRVGDVLRVAGFKNQAPMFKFLRRKNVVLSIDSDKTDEAELHAAVSGAVQHLAPFGASLVEYTSYADAGTIPGHYVLFWELRLRAGDVPVPVPASVFEDCCLAVEEALNSVYRQGRAADRSIGPLEIRVVSDGTFDRLMDYALARGASINQYKVPRCVHPGPVVELLDGRVQASYVSPKCPKWSPGGGKQWSSDAAAKKPAAAAGSNNGGGAVVA
modifications: Zea mays
B6: ZmACN32133: GH3 protein, accession ACN32133 (protein)
chain: MAPTTATAAAVGTKATALGVAACERDVEKLEFIEDKTRNFDAEQVRVLAEILARNNGAEYLRRHGMEGRTDRLAFKACVPVVTYEDLRPEIERIANGDRSNIISSHPITEFLTSSGTSAGERKLMPTIEDELNRRQMLYSLLMPVMNLYVPGLDKGKGLYFLFIKSETKTPGGLPARPVLTSYYKSDHFKHRPYDPYNVYTSPTAAILCTDSFQSMYSQMLCGLVARAEVLRVGAVFASGLLRAIRFLQLHWQELAHDLRTGTLSAKVTEPSIREAVAEVLRPDAGLADLVEAECGKESWEGIITRVWPNTKYLDVIVTGAMAQYIPTLKYYSGGLPMACTMYASSECYFGLNLRPMCDPSEVSYTIMPNMGYFELLPHDPDAVPPSRDDPPPRLLDLADAEVGRDYELVITTYAGLCRYRVGDILHVTGFHNAAPQFRFVRRKNVLLSVDSDKTDEAELQAAVERAARLLAPYDAAIAEYTSQADATTIPGHYVVYWELMVREGGASPDAAVFERCCLEMEEALNAVYRQGRNGDAIGPLEIRVVRGGTFEEVMDYAISRGASINQYKAPRCVSFGPIIELLNSRVVSSHFSPACPTYSPHKK
modifications: Zea mays
B7: SmXP_002973755: GH3 protein, accession XP_002973755 (protein, listed as Selaginella moellendorffii)
chain: MNLEHKEREKQALQFIEKVTSEAAEVQSAVLSAILERNAHTEYLKRHGLNGRTDKTSFRQCLPVITYEDLEPEIQRIANGDTSPILSAHPISEFLTSSGTSAGQRKLMPTISEEFERRCLLYSLLMPVMNQYLPGLDQGKGMYLFFIKSEAKTPGGLLARPVLTSYYKSRYFTERPYDPCNVYTSPNETVLCPDAHQSMYCQLLCGLLQRHEVLRMGAVFASGFLRAIRFLETHWRELCDDIRAGGLNELVVDAAARRAVLALMPRPDPALADDIAEQCRKESWAGIIARLWPNTKYIDVIVTGTMAQYIPTLDYYSGGLPLVCTMYASSECYFGINLQPLCPPSEVSYTLLPNMAYFEFLPIKPKSGKSKAPRVPDPSELVELVDVKMGHEYELVITTYAGLCRYRVGDILRVTGFHNSAPQFAFVCRKNVVLSIDSDKTGEEDLAKAVRSATAGIESSYGARLIEYTSYADTTTIPGHYVLFWELRSSSPIPKDVLEECCLAIEESLDSVYRQGRVSDRSIGPLEIKVVKPGTFDQLMDYALSRGASINQYKTPRCVKFTPIVELLNARVVSSYFSPRLPKWSPVRPQWANSNGVH

test: LC-MS assay of GH3 conjugation of IAA with Asp or Glu; type: biochemical; settings: conjugation of IAA with Asp by recombinant GH3 protein; IAA-Asp product by LC-MS
Method in brief: (§1)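 Amino acid conjugates of IAA, 2,4-D or dicamba measured by LC-MS against conjugate standards, with kinetic parameters fitted to Michaelis-Menten initial velocities. Reactions: 5 mM each of auxin, ATP and Asp or Glu with 44 to 164 μg/mL purified His-tagged GH3 (E. coli-expressed), pH 8.0 Tris, 5 mM MgCl2, 1 mM DTT, 30 °C for 3 h.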

Molecule | kcat (hrs−1) IAA-Asp [h⁻¹]
B1 | 903.124
B2 | 869.016
B3 | 684.072
B4 | 0.000
B5 | 522.629
B6 | 876.059
B7 | 220.320

same assay, conditions: conjugation of IAA with Glu by recombinant GH3 protein; IAA-Glu product by LC-MS

Molecule | kcat (hrs−1) IAA-Glu [h⁻¹]
B1 | 50.990
B2 | 49.496
B3 | 26.467
B4 | 2.149
B5 | 26.015
B6 | 83.547
B7 | 9.285

test: LC-MS assay of GH3 conjugation of 2,4-D with Asp or Glu; type: biochemical; settings: conjugation of 2,4-D with Asp by recombinant GH3 protein; 2,4-D-Asp product by LC-MS; 5 mM 2,4-D substrate
Method in brief: as §1

Molecule | kcat (hrs−1) 2,4-D-Asp [h⁻¹]
B1 | 18.287
B2 | 2.278
B3 | 2.892
B4 | 0.000
B5 | 3.255
B6 | 0.602
B7 | 1.076

same assay, conditions: conjugation of 2,4-D with Glu by recombinant GH3 protein; 2,4-D-Glu product by LC-MS; 5 mM 2,4-D substrate

Molecule | kcat (hrs−1) 2,4-D-Glu [h⁻¹]
B1 | 4.970
B2 | 0.401
B3 | 0.355
B4 | 0.000
B5 | 0.993
B6 | 0.241
B7 | 0.431

From patent publication US20150351390A1, “COMPOSITIONS AND METHODS FOR AUXIN-ANALOG CONJUGATION” (PIONEER HI-BRED INTERNATIONAL, INC., priority 2012, published 2015)
